Experiments:
[1] = target: HPV 16 E6(29-38) peptide in the context of HLA-A02:01 on target cells (human; HPV 16); test: cell-based or functional assay
[2] = target: HPV 16 E7(11-19) peptide in the context of HLA-A02:01 on target cells (human; HPV 16); test: cell-based or functional assay
[3] = target: T1, HLA-A2/E6 (29-38) tetramer (human; HPV 16); test: tetramer flow cytometry; transfected Jurkat-derived cells, CD8+ population
T1 construct: also called E6(29-38) peptide-MHC tetramer; E6(29-38)-loaded tetramer
Procedure: (§1) For transfection, the CD4+ and CD4+/CD8+ cell mixtures were transiently transfected with TCR-encoding plasmids and 48 hours after transfection, cells were assessed by flow cytometry for (1) binding of the target peptide in the context of an MHC molecule (HLA:A02:01) by staining with an E6(29-38) peptide- or an E7(11-19) peptide-MHC tetramer reagent, and/or (2) CD8+ independent binding of the target by co-staining the tetramer-labeled cells with an anti-CD8 antibody.

[4] = target: T1, HLA-A2/E6 (29-38) tetramer; test: tetramer flow cytometry; transfected 1:1 CD4+ and CD4+/CD8+ Jurkat-derived cells;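 note: cell mixtures transiently transfected with TCR-encoding plasmids, analysed by flow cytometry 48 h later after HLA-A*02:01 E6 tetramer staining combined with anti-CD8 antibody co-staining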
Procedure: as §1

| Binder | % CD8+/IC IFNγ+; transduced primary CD8+ T cells with T2 cells pulsed with 10 uM E6(29-38) peptide, E:T 10:1, 4 h [1] [%] | % CD8+/IC IFNγ+; transduced primary CD8+ T cells with T2 cells pulsed with 10 uM E7(11-19) peptide (control peptide), E:T 10:1, 4 h [2] [%] | % cells in E6 tet+/CD8+ quadrant [3] [%] | % cells in E6 tet+/CD8- quadrant [3] [%] | % cells in E6 tet-/CD8+ quadrant [3] [%] | % cells in E6 tet-/CD8- quadrant [3] [%] | % cells in E6 tet+/CD8+ quadrant [4] [%] | % cells in E6 tet+/CD8- quadrant [4] [%] | % cells in E6 tet-/CD8+ quadrant [4] [%] | % cells in E6 tet-/CD8- quadrant [4] [%] |
| --- | --- | --- | --- | --- | --- | --- | --- | --- | --- | --- |
| modified version of TCR 4 (codon optimized, cysteine modified) (TCR) TCR alpha: DAKTTQPNSMESNEEEPVHLPCNHSTISGTDYIHWYRQLPSQGPEYVIHGLTSNVNNRMASLAIAEDRKSSTLILHRATLRDAAVYYCILLVIRGTSYGKLTFGQGTILTVHPNIQNPDPAVYQLRDSKSSDKSVCLFTDFDSQTNVSQSKDSDVYITDKCVLDMRSMDFKSNSAVAWSNKSDFACANAFNNSIIPEDTFFPSPESSCDVKLVEKSFETDTNLNFQNLSVIGFRILLLKVAGFNLLMTLRLWSS TCR beta: DTGVSQDPRHKITKRGQNVTFRCDPISEHNRLYWYRQTLGQGPEFLTYFQNEAQLEKSRLLSDRFSAERPKGSFSTLEIQRTEQGDSAMYLCASSPGGGNTEAFFGQGTRLTVVEDLNKVFPPEVAVFEPSEAEISHTQKATLVCLATGFFPDHVELSWWVNGKEVHSGVCTDPQPLKEQPALNDSRYCLSSRLRVSATFWQNPRNHFRCQVQFYGLSENDEWTQDRAKPVTQIVSAEAWGRADCGFTSVSYQQGVLSATILYEILLGKATLYAVLVSALVLMAMVKRKDF | 94.2 | 2.5 | – | – | – | – | – | – | – | – |
| TCR 22 (codon optimized, cysteine modified version) (TCR, V domains shown) V domain 1: GQNIDQPTEMTATEGAIVQINCTYQTSGFNGLFWYQQHAGEAPTFLSYNVLDGLEEKGRFSSFLSRSKGYSYLLLKELQMKDSASYLCAVRARMDSNYQLIWGAGTKLIIKP V domain 2: DAGVTQSPTHLIKTRGQHVTLRCSPISGHKSVSWYQQVLGQGPQFIFQYYEKEERGRGNFPDRFSARQFPNYSSELNVNALLLGDSALYLCASSRTENYGYTFGSGTRLTVVE | – | – | 51.2 | 0.14 | 47.3 | 1.38 | – | – | – | – |
| modified version of TCR 7 (codon optimized, cysteine modified) (TCR, V domains shown) V domain 1: KNQVEQSPQSLIILEGKNCTLQCNYTVSPFSNLRWYKQDTGRGPVSLTIMTFSENTKSNGRYTATLDADTKQSSLHITASQLSDSASYICVVSRDNYGQNFVFGPGTRLSVLP V domain 2: EPEVTQTPSHQVTQMGQEVILRCVPISNHLYFYWYRQILGQKVEFLVSFYNNEISEKSEIFDDQFSVERPDGSNFTLKIRSTKLEDSAMYFCAITDRTNYGYTFGSGTRLTVVE | 70.5 | – | – | – | – | – | – | – | – | – |
| modified version of TCR 13 (codon optimized, cysteine modified) (TCR, V domains shown) V domain 1: AQSVTQLDSHVSVSEGTPVLLRCNYSSSYSPSLFWYVQHPNKGLQLLLKYTSAATLVKGINGFEAEFKKSETSFHLTKPSAHMSDAAEYFCVVRGGKLIFGQGTELSVKP V domain 2: GAGVSQSPRYKVAKRGQDVALRCDPISGHVSLFWYQQALGQGPEFLTYFQNEAQLDKSGLPSDRFFAERPEGSVSTLKIQRTQQEDSAVYLCASSPTGTERELFFGEGSRLTVLE | – | – | 38.6 | 0.064 | 59.5 | 1.82 | – | – | – | – |
| modified version of TCR 5 (codon optimized, cysteine modified) (TCR, V domains shown) V domain 1: AQKITQTQPGMFVQEKEAVTLDCTYDTSDQSYGLFWYKQPSSGEMIFLIYQGSYDEQNATEGRYSLNFQKARKSANLVISASQLGDSAMYFCAMREGTGTSYGKLTFGQGTILTVHP V domain 2: DVKVTQSSRYLVKRTGEKVFLECVQDMDHENMFWYRQDPGLGLRLIYFSYDVKMKEKGDIPEGYSVSREKKERFSLILESASTNQTSMYLCASSPWGETHQPQHFGDGTRLSILE | 43.7 | 7.22 | – | – | – | – | – | – | – | – |
| TCR 18 (codon optimized, cysteine modified version) (TCR, V domains shown) V domain 1: KQEVTQIPAALSVPEGENLVLNCSFTDSAIYNLQWFRQDPGKGLTSLLLIQSSQREQTSGRLNASLDKSSGRSTLYIAASQPGDSATYLCAEGNAGGTSYGKLTFGQGTILTVHP V domain 2: DVKVTQSSRYLVKRTGEKVFLECVQDMDHENMFWYRQDPGLGLRLIYFSYDVKMKEKGDIPEGYSVSREKKERFSLILESASTNQTSMYLCASSFWGRSNSPLHFGNGTRLTVTE | – | – | 50.4 | 0.045 | 47.7 | 1.86 | 23.3 | 3.61 | 12 | 61.1 |
| TCR 23 (codon optimized, cysteine modified version) (TCR, V domains shown) V domain 1: AQKITQTQPGMFVQEKEAVTLDCTYDTSDQSYGLFWYKQPSSGEMIFLIYQGSYDEQNATEGRYSLNFQKARKSANLVISASQLGDSAMYFCAMSPPGGSARQLTFGSGTQLTVLP V domain 2: DVKVTQSSRYLVKRTGEKVFLECVQDMDHENMFWYRQDPGLGLRLIYFSYDVKMKEKGDIPEGYSVSREKKERFSLILESASTNQTSMYLCASSPWGQSNQPQHFGDGTRLSILE | – | – | 43.6 | 0.18 | 54.1 | 2.14 | 52.5 | 22.5 | 5.19 | 19.7 |
| TCR 24 (codon optimized, cysteine modified version) (TCR, V domains shown) V domain 1: AQKITQTQPGMFVQEKEAVTLDCTYDTSDQSYGLFWYKQPSSGEMIFLIYQGSYDEQNATEGRYSLNFQKARKSANLVISASQLGDSAMYFCAMREGRGDSWGKLQFGAGTQVVVTP V domain 2: DVKVTQSSRYLVKRTGEKVFLECVQDMDHENMFWYRQDPGLGLRLIYFSYDVKMKEKGDIPEGYSVSREKKERFSLILESASTNQTSMYLCASSPFGRGSYEQYFGPGTRLTVTE | – | – | 29.1 | 0.13 | 66.2 | 4.51 | 55 | 23.5 | 5.56 | 16 |
| TCR 17 (codon optimized, cysteine modified version) (TCR, V domains shown) V domain 1: AQKITQTQPGMFVQEKEAVTLDCTYDTSDPSYGLFWYKQPSSGEMIFLIYQGSYDQQNATEGRYSLNFQKARKSANLVISASQLGDSAMYFCAMREGRGDKIIFGKGTRLHILP V domain 2: DVKVTQSSRYLVKRTGEKVFLECVQDMDHENMFWYRQDPGLGLRLIYFSYDVKMKEKGDIPEGYSVSREKKERFSLILESASTNQTSMYLCASSLWGRSNQPQHFGDGTRLSILE | – | – | 34.7 | 0.17 | 63.6 | 1.53 | 36.2 | 21.3 | 7.72 | 34.8 |
| TCR 21 (codon optimized, cysteine modified version) (TCR, V domains shown) V domain 1: AQKITQTQPGMFVQEKEAVTLDCTYDTSDQSYGLFWYKQPSSGEMIFLIYQGSYDEQNATEGRYSLNFQKARKSANLVISASQLGDSAMYFCAMREGRVTGGGNKLTFGTGTQLKVEL V domain 2: NAGVTQTPKFQVLKTGQSMTLQCAQDMNHNSMYWYRQDPGMGLRLIYYSASEGTTDKGEVPNGYNVSRLNKREFSLRLESAAPSQTSVYFCASRPWGNQNTEAFFGQGTRLTVVE | – | – | 51.6 | 0.22 | 46 | 2.18 | 28.8 | 32.7 | 7.16 | 31.3 |
| modified version of TCR 3 (codon optimized, cysteine modified) (TCR) TCR alpha: AQKITQTQPGMFVQEKEAVTLDCTYDTSDQSYGLFWYKQPSSGEMIFLIYQGSYDEQNATEGRYSLNFQKARKSANLVISASQLGDSAMYFCAMREGRGFKTIFGAGTRLFVKANIQKPDPAVYQLRDSKSSDKSVCLFTDFDSQTNVSQSKDSDVYITDKCVLDMRSMDFKSNSAVAWSNKSDFACANAFNNSIIPADTFFPSPESSCDVKLVEKSFETDTNLNFQNLSVIGFRILLLKVAGFNLLMTLRLWSS TCR beta: GAGVSQSPRYKVAKRGQDVALRCDPISGHVSLFWYQQALGQGPEFLTYFQNEAQLDKSGLPSDRFFAERPEGSVSTLKIQRTQQEDSAVYLCASSHLAGFTGELFFGEGSRLTVLEDLKNVFPPEVAVFEPSEAEISHTQKATLVCLATGFYPDHVELSWWVNGKEVHSGVCTDPQPLKEQPALNDSRYCLSSRLRVSATFWQNPRNHFRCQVQFYGLSENDEWTQDRAKPVTQIVSAEAWGRADCGFTSESYQQGVLSATILYEILLGKATLYAVLVSALVLMAMVKRKDSRG | 95.1 | 2.51 | – | – | – | – | – | – | – | – |
| TCR 27 (codon optimized, cysteine modified version) (TCR, V domains shown) V domain 1: DAKTTQPNSMESNEEEPVHLPCNHSTISGTDYIHWYRQLPSQGPEYVIHGLTSNVNNRMASLAIAEDRKSSTLILHRATLRDAAVYYCILRVPPQSGGYQKVTFGTGTKLQVIP V domain 2: NAGVTQTPKFQVLKTGQSMTLQCAQDMNHNSMYWYRQDPGMGLRLIYYSASEGTTDKGEVPNGYNVSRLNKREFSLRLESAAPSQTSVYFCASSEFGSLNEKLFFGSGTQLSVLE | – | – | 24.5 | 0.02 | 73.5 | 1.96 | 15.8 | 3.5 | 20.1 | 60.6 |
| modified version of TCR 14 (codon optimized, cysteine modified) (TCR) TCR alpha: ILNVEQSPQSLHVQEGDSTNFTCSFPSSNFYALHWYRWETAKSPEALFVMTLNGDEKKKGRISATLNTKEGYSYLYIKGSQPEDSATYLCASQTGANNLFFGTGTRLTVIPYIQNPDPAVYQLRDSKSSDKSVCLFTDFDSQTNVSQSKDSDVYITDKCVLDMRSMDFKSNSAVAWSNKSDFACANAFNNSIIPEDTFFPSPESSCDVKLVEKSFETDTNLNFQNLSVIGFRILLLKVAGFNLLMTLRLWSS TCR beta: DVKVTQSSRYLVKRTGEKVFLECVQDMDHENMFWYRQDPGLGLRLIYFSYDVKMKEKGDIPEGYSVSREKKERFSLILESASTNQTSMYLCASTFWGQRRTEAFFGQGTRLTVVEDLNKVFPPEVAVFEPSEAEISHTQKATLVCLATGFFPDHVELSWWVNGKEVHSGVCTDPQPLKEQPALNDSRYCLSSRLRVSATFWQNPRNHFRCQVQFYGLSENDEWTQDRAKPVTQIVSAEAWGRADCGFTSVSYQQGVLSATILYEILLGKATLYAVLVSALVLMAMVKRKDF | – | – | 38.4 | 0.04 | 59.7 | 1.8 | – | – | – | – |
